The results in this text go back to FireProtDB (doi:10.1074/jbc.m707838200).

Several values for one entry are separate records, joined by “and”; a condition that tells them apart may be missing. Identical values can stand only once.

First the molecules themselves.
B1: E114Q, Q9EYL5 (parent)
chain: MTKKLLTLFIVSMLILTACGKKESATTSSKNGKPLVVVYGDYKCPYCKELDEKVMPKLRKNYIDNHKVEYQFVNLAFLGKDSIVGSRASHAVLMYAPKSFLDFQKQLFAAQQDENKEWLTKELLDKHIKQLHLDKETENKIIKDYKTKDSKSWKAAEKDKKIAKDNHIKTTPTAFINGEKVEDPYDYESYEKLLKDKIK

This data set covers variants of B1. The settings on record: Staphylococcus aureus, pH 7, Thermal, CD, reversible: Yes, structure 3BCI, whole UniProt chain shown; for unfolding free energy: 25 °C, Hepes-NaOH 20 mM, NaCl 170 mM; for Tm / change of melting temperature, mutant - wild type (higher = more stable): Phosphate 100 mM.

As usually defined, the Tm is the temperature at which the thermal transition is half complete. Regarding E114Q, the unfolding free energy amounted to 6.13 kcal/mol; the Tm turned out to be 74.2 °C; the “change of melting temperature, mutant - wild type (higher = more stable)” value is 2.3 °C.
Take T171V: the unfolding free energy was 8.19 kcal/mol and 8.42 kcal/mol; the Tm is 71.8 °C and 73 °C; the “change of melting temperature, mutant - wild type (higher = more stable)” value is -0.7 °C and 1.1 °C.
